Results: article PMC9995517 (2023)
Residue numbers refer to the chain shown, from its start. Numbers in names are those of the source. One block for each binder: values may come before it.

Molecular target: F-actin (preassembled filaments of rabbit skeletal muscle actin) (rabbit, UniProt P68135 1-377)

Kd: 800 nM
B1: tyrosyl-tRNA synthetase E196K (CMT-causing mutant), recombinant Xpress-6xHis tagged (His-YARS1^E196K) (enzyme)
chain: MGDAPSPEEKLHLITRNLQEVLGEEKLKEILKERELKIYWGTATTGKPHVAYFVPMSKIADFLKAGCEVTILFADLHAYLDNMKAPWELLELRVSYYENVIKAMLESIGVPLEKLKFIKGTDYQLSKEYTLDVYRLSSVVTQHDSKKAGAEVVKQVEHPLLSGLLYPGLQALDEEYLKVDAQFGGIDQRKIFTFAKKYLPALGYSKRVHLMNPMVPGLTGSKMSSSEEESKIDLLDRKEDVKKKLKKAFCEPGNVENNGVLSFIKHVLFPLKSEFVILRDEKWGGNKTYTAYVDLEKDFAAEVVHPGDLKNSVEVALNKLLDPIREKFNTPALKKLASAAYPDPSKQKPMAKGPAKNSEPEEVIPSRLDIRVGKIITVEKHPDADSLYVEKIDVGEAEPRTVVSGLVQFVPKEELQDRLVVVLCNLKPQKMRGVESQGMLLCASIEGINRQVEPLDPPAGSAPGEHVFVKGYEKGQPDEELKPKKKVFEKLQADFKISEECIAQWKQTNFMTKLGSISCKSLKGGNIS

Kd: 750 nM
B2: tyrosyl-tRNA synthetase, wild type, recombinant Xpress-6xHis tagged (His-YARS1^WT) (enzyme)
chain: B1 chain with K196E
